Read-outs that look alike come from different tables or passages of the source.

Experiment [1] concerns the target T1, programmed death-1 (PD-1) on EL4 cells (mouse (endogenous in EL4), UniProt Q02242). The experiment in a line: flow cytometry on cells. On the technique in general: Flow cytometry measures light scatter and fluorescence of single cells or particles in a stream.
The target in experiment [2] is T1, programmed death-1 (PD-1) on EL4 cells. Briefly: flow cytometry on cells. The source holds these as a separate data set.

T1 sequence (Q02242 25-288): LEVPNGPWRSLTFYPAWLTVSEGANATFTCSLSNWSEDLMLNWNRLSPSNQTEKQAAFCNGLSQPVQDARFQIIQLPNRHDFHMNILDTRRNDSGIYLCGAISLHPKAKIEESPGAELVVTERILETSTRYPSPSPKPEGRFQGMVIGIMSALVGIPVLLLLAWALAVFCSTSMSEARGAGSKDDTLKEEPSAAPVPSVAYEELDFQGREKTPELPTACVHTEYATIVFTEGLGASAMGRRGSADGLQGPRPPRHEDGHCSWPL

B1: αPD-1 scFv, NH2-Histag(H6)-(GGGSG)3-VH-(GGGSG)4-VL-COOH (scFv, V domains shown)
VH: EVQLQESGPGLVKPSQSLSLTCSVTGYSITSSYRWNWIRKFPGNRLEWMGYINSAGISNYNPSLKRRISITRDTSKNQFFLQVNSVTTEDAATYYCARSDNMGTTPFTYWGQGTLVTVSS
VL: DIVMTQGTLPNPVPSGESVSITCRSSKSLLYSDGKTYLNWYLQRPGQSPQLLIYWMSTRASGVSDRFSGSGSGTDFTLKISGVEAEDVGIYYCQQGLEFPTFGGGTKLELK
One may read the EC50 as the concentration at which the effect is half-maximal. With B1, the EC50 in experiment [1] was determined as 4160 nM; in experiment [2], 320 nM.

B2: intact anti-programmed death-1 antibody (αPD-1), clone RMP1-14 (antibody, V domains shown)
VH: B1 VH
VL: B1 VL
The molecule B2 showed an EC50 in experiment [1] of 1320 nM.

Values taken from paper PMC5601012 (Molecular pharmaceutics, 2017).
